Measurements as given in IntAct's records for PubMed 31515488.

B1: PIH1 domain-containing protein 2 (Homo sapiens), Q8WWB5 (parent)
chain: METSSKGLLTQVTQFWNLLDDLAQSDPEGYEKFIQQQLKEGKQLCAAPEPQLCLQTRILKPKEKILFINLCQWTRIPAPQSTTHPVPLTVGKPEDTTEISDAYTVIDVAYNPDVLHAAEKDQVKKNQLIQMAMKCIEEKFQFTLSHSYHITKFRIKGSIQRMKQNLMGIQTDSIDLREKMRRELTLGQIRSSTMSNPDHFPQLLLPKDQVSGKAVCLIEEISSTEIQVEMKMPAYELKIVHDHSEKPLKIELKVELPGINSVSLCDLSVSEDDLLIEVSEKYRLHLNLPKLIDTEMTTAKFIKEKSTLIITMPLV
B2: Protein phosphatase 1 regulatory inhibitor subunit 16B (Homo sapiens), Q96T49 (parent)
chain: MASHVDLLTELQLLEKVPTLERLRAAQKRRAQQLKKWAQYEQDLQHRKRKHERKRSTGGRRKKVSFEASVALLEASLRNDAEEVRYFLKNKVSPDLCNEDGLTALHQCCIDNFEEIVKLLLSHGANVNAKDNELWTPLHAAATCGHINLVKILVQYGADLLAVNSDGNMPYDLCEDEPTLDVIETCMAYQGITQEKINEMRVAPEQQMIADIHCMIAAGQDLDWIDAQGATLLHIAGANGYLRAAELLLDHGVRVDVKDWDGWEPLHAAAFWGQMQMAELLVSHGASLSARTSMDEMPIDLCEEEEFKVLLLELKHKHDVIMKSQLRHKSSLSRRTSSAGSRGKVVRRASLSDRTNLYRKEYEGEAILWQRSAAEDQRTSTYNGDIRETRTDQENKDPNPRLEKPVLLSEFPTKIPRGELDMPVENGLRAPVSAYQYALANGDVWKVHEVPDYSMAYGNPGVADATPPWSSYKEQSPQTLLELKRQRAAAKLLSHPFLSTHLGSSMARTGESSSEGKAPLIGGRTSPYSSNGTSVYYTVTSGDPPLLKFKAPIEEMEEKVHGCCRIS
partner: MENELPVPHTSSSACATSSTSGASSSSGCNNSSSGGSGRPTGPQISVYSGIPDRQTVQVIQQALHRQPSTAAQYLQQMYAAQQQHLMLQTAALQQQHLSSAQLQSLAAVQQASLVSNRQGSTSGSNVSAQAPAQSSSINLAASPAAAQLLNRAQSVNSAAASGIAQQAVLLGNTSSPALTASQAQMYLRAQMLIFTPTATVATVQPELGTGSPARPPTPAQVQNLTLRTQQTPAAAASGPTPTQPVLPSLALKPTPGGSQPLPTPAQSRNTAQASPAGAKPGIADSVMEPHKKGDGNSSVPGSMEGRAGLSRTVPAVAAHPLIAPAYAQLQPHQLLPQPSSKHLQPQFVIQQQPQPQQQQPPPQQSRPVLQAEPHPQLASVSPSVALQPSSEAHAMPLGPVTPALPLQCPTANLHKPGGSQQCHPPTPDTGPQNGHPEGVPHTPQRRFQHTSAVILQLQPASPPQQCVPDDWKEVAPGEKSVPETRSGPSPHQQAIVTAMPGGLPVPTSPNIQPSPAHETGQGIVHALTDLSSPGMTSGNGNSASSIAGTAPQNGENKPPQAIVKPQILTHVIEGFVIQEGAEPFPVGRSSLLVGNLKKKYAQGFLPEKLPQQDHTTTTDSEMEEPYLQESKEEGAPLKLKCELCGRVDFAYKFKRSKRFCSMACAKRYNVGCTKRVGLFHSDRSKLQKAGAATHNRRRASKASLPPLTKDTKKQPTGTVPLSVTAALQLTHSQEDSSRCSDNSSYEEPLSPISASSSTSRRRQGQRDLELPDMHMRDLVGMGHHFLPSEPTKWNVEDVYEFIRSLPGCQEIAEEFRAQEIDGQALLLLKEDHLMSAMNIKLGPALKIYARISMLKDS

Variants of: B1
Conditions: with cenpr_human ITGB3BP

Row | effect of a mutation on the interaction | Variant
1 | with no effect | METSSKGLLTQVTQFWNLLDDLAQSDPEGYEKFIQQQLKEGKQLCAAPEPQLCLQTRILKPKEKILFINLCQWTRIPAPQSTTHPVPLTVGKPEDTTEISDDYTVIDVAYNPDVLHAAEKDQVKKNQLIQMAMKCIEEKFQFTLSHSYHITKFRIKGSIQRMKQNLMGIQTDSIDLREKMRRELTLGQIRSSTMSNPDHFPQLLLPKDQVSGKAVCLIEEISSTEIQVEMKMPAYELKIVHDHSEKPLKIELKVELPGINSVSLCDLSVSEDDLLIEVSEKYRLHLNLPKLIDTEMTTAKFIKEKSTLIITMPLV [A102D]

Variants of: B1
Conditions: with if2b3_human IGF2BP3, O00425
if2b3_human IGF2BP3, O00425, sequence (O00425 whole entry): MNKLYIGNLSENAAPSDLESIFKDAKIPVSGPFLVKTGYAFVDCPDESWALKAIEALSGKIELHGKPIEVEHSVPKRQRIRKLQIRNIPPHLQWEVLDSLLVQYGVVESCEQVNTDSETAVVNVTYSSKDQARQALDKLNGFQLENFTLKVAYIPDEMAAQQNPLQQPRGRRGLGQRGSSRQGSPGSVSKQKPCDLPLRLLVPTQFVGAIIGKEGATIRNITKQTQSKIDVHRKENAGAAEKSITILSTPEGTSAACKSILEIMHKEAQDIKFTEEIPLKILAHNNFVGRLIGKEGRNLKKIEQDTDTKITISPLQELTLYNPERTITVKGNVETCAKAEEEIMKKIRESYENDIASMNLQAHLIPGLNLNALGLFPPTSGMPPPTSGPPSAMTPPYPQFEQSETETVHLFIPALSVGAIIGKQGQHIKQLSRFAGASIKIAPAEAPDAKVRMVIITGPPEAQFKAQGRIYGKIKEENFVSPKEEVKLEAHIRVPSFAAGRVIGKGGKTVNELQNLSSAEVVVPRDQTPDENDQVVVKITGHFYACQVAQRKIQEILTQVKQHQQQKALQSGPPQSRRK

Row | effect of a mutation on the interaction | Variant
2 | with no effect | METSSKGLLTQVTQFWNLLDDLAQSDPEGYEKFIQQQLKEGKQLCAAPEPQLCLQTRILKPKEKILFINLCQWTRIPAPQSTTHPVPLTVGKPEDTTEISDDYTVIDVAYNPDVLHAAEKDQVKKNQLIQMAMKCIEEKFQFTLSHSYHITKFRIKGSIQRMKQNLMGIQTDSIDLREKMRRELTLGQIRSSTMSNPDHFPQLLLPKDQVSGKAVCLIEEISSTEIQVEMKMPAYELKIVHDHSEKPLKIELKVELPGINSVSLCDLSVSEDDLLIEVSEKYRLHLNLPKLIDTEMTTAKFIKEKSTLIITMPLV [A102D]

Variants of: B1
Conditions: with if4a2_human EIF4A2, Q14240
if4a2_human EIF4A2, Q14240, sequence (Q14240 whole entry): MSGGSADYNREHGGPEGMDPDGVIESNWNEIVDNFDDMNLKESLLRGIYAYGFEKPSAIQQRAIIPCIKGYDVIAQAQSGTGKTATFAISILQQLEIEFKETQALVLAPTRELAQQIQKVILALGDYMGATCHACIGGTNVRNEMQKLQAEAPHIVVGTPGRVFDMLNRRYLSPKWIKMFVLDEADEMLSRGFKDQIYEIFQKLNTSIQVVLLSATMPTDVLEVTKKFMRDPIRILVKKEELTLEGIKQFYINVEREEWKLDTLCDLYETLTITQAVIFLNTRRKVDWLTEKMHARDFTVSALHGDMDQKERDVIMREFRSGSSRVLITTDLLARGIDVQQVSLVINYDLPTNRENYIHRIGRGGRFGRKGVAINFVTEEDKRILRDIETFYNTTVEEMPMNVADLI

Row | effect of a mutation on the interaction | Variant
3 | with no effect | METSSKGLLTQVTQFWNLLDDLAQSDPEGYEKFIQQQLKEGKQLCAAPEPQLCLQTRILKPKEKILFINLCQWTRIPAPQSTTHPVPLTVGKPEDTTEISDDYTVIDVAYNPDVLHAAEKDQVKKNQLIQMAMKCIEEKFQFTLSHSYHITKFRIKGSIQRMKQNLMGIQTDSIDLREKMRRELTLGQIRSSTMSNPDHFPQLLLPKDQVSGKAVCLIEEISSTEIQVEMKMPAYELKIVHDHSEKPLKIELKVELPGINSVSLCDLSVSEDDLLIEVSEKYRLHLNLPKLIDTEMTTAKFIKEKSTLIITMPLV [A102D]

Variants of: B1
Conditions: with gfap_human GFAP

Row | effect of a mutation on the interaction | Variant
4 | with no effect | METSSKGLLTQVTQFWNLLDDLAQSDPEGYEKFIQQQLKEGKQLCAAPEPQLCLQTRILKPKEKILFINLCQWTRIPAPQSTTHPVPLTVGKPEDTTEISDDYTVIDVAYNPDVLHAAEKDQVKKNQLIQMAMKCIEEKFQFTLSHSYHITKFRIKGSIQRMKQNLMGIQTDSIDLREKMRRELTLGQIRSSTMSNPDHFPQLLLPKDQVSGKAVCLIEEISSTEIQVEMKMPAYELKIVHDHSEKPLKIELKVELPGINSVSLCDLSVSEDDLLIEVSEKYRLHLNLPKLIDTEMTTAKFIKEKSTLIITMPLV [A102D]

Variants of: B2
Conditions: with phc2_human PHC2, Q8IXK0

Row | effect of a mutation on the interaction | Variant
5 | with no effect | MASHVDLLTELQLLEKVPTLERLRAAQKRRAQQLKKWAQYEQDLQHRKRKHERKRSTGGRRKKVSFEASVALLEASLRNDAEEVRYFLKNKVSPDLCNEDGLTALHQCCIDNFEEIVKLLLSHGANVNAKDNELWTPLHAAATCGHINLVKILVQYGADLLAVNSDGNMPYDLCEDEPTLDVIETCMAYQGITQEKINEMRVAPEQQMIADIHCMIAAGQDLDWIDAQGATLLHIAGANGYLRAAELLLDHGVRVDVKDWDGWEPLHAAAFWGQMQMAELLVSHGASLSARTSMDEMPIDLCEEEEFKVLLLELKHKHDVIMKSQLRHKSSLSRRTSSAGSRGKVVRRASLSDRTNLYRKEYEGEAILWQRSAAEDQRTSTYNGDIRETRTDQENKDPNPRLEKPVLLSEFPTKIPRGELDMPVENGLRAPVSAYQYALANGDVWKVHEVPDYSMAYGNPGVADATPPWSSYKEQSPQTLLELKRQRAAAKLLSHPFLSTHLGSSMARTGESSSEGKASLIGGRTSPYSSNGTSVYYTVTSGDPPLLKFKAPIEEMEEKVHGCCRIS [P519S]
